Molecular target: the molecule itself
Experiment: SEC; Superose 12 column, 20 mM sodium phosphate pH 7.9, 100 mM NaCl, 0.5 ml/min; OmpF in amphipol A8-35 at 1:10 (w:w), detergent-free buffer; oligomer: trimer

B1: Outer membrane protein F (OmpF) (natural protein, E. coli, UniProt P02931 23-362, looked up)
chain: AEIYNKDGNKVDLYGKAVGLHYFSKGNGENSYGGNGDMTYARLGFKGETQINSDLTGYGQWEYNFQGNNSEGADAQTGNKTRLAFAGLKYADVGSFDYGRNYGVVYDALGYTDMLPEFGGDTAYSDDFFVGRVGGVATYRNSNFFGLVDGLNFAVQYLGKNERDTARRSNGDGVGGSISYEYEGFGIVGAYGAADRTNLQEAQPLGNGKKAEQWATGLKYDANNIYLAANYGETRNATPITNKFTNTSGFANKTQDVLLVAQYQFDFGLRPSIAYTKSKAKDVEGIGDVDLVNYFEVGATYYFNKNMSTYVDYIINQIDSDNKLGVGSDDTVAVGIVYQF
modifications: deuterated (cells grown in 85% D2O minimal medium)
notes: Outer membrane protein F (OmpF), the major porin of the E. coli outer membrane, produced from E. coli BE3000 cells; trimeric, each monomer a 16-stranded beta-barrel; Native protein purified from the outer membrane of strain BE3000; Held in amphipol A8-35 (not a protein) in all experiments; also called dOmpF; deuterated OmpF; source: E. coli BE3000 cells grown in 85% D2O minimal medium, purified …
- stoichiometry N: 3

From paper PMC6317593, “Determining the amphipol distribution within membrane-protein fibre samples using small-angle neutron scattering” (Acta Crystallographica. Section D, Structural Biology, 2018)
